Results: publication PMC8550791

Biological target: K48-linked pentaubiquitin (UniProt P0CG48)

Km of steady-state kinetics of cleavage of fluorescently labeled K48-linked pentaUb, against MINDY1 WT: 3 fold lower
Substance: MINDY1 P138A (residues 110-384) (from UniProt Q8N5J2 110-384) (domain or fragment)
